# Experimental data as given in the DeepSol protein solubility set.
# Test: soluble on expression in E. coli; label from the status in PepcDB or PDB records
row,Sequence,soluble on expression in E. coli
1,LALVATGNDTTTKPDLYYLKNSEAINSLALLPPPPAVGSIAFLNDQAMYEQGRLLRNTERGKLAAEDANLSSGGVANAFSGAFGSPITEKDAPALHKLLTNMIEDAGDLATRSAKDHYMRIRPFAFYGVSTCNTTEQDKLSKNGSYPSGHTSIGWATALVLAEINPQRQNEILKRGYELGQSRVICGYHWQSDVDAARVVGSAVVATLHTNPAFQQQLQKAKAEFAQHQKK,soluble
2,LDGVLVPESGILVSVGQDVDSVNDYASALGTIPAGVTNYVGIVNLDGLNSDADAGAGRNNIAELANAYPTSALVVGVSMNGEVDAVASGRYNANIDTLLNTLAGYDRPVYLRWAYEVDGPWNGHSPSGIVTSFQYVHDRIIALGHQAKISLVWQVASYCPTPGGQLDQWWPGSEYVDWVGLSYFAPQDCNWDRVNEAAQFARSKGKPLFLNESTPQRYQVADLTYSADPAKGTNRQSKTSQQLWDEWFAPYFQFMSDNSDIVKGFTYINADWDSQWRWAAPYNEGYWGDSRVQANALIKSNWQQEIAKGQYINHSETLFETLGYGSTHHHHHH,soluble
3,LENPLYYLHNFRQVLNWLQLRYADVLSADEQRFILDFAQLAEPSQALLVRMVMRKGRHFRLSKLSYPEIGDSAAALEPLLALGWVDEQAPLCLEELFGLLQKAEILQCFNGLAAKARKDQWLEELTQQGLAPQAFAQWCPALPDRLLSLTLMPLCDRLRLMFFGNLYQDWSEFVLADLGIYSYEKVEISADARGLRSREDVDGFLYLHECQEAFEAGAELPEVLAHIARFQTLNPWLEKRRAKLLFQLGQQCERLAQWALARQIYQECAYPGARSRLIRVLERSAQYQAALALAEQAAAAPESAAEAQHLLRIMPRLRRKLGGPPAPRAANREVQRLDLCLARDADGLAVELHVQAHLHQPQAPVHYVENSLINSLFGLLCWPAIFAPLPGAFFHPFQRGPVDLFSEDFHQRRSELFQACLAELDDGRYRQSIRQRFVAKWGLQSPFVFWGALSEELLDQALDCLPAEHLKHWFQRLLLDIKANRAGMPDLIQFWPEQKRYRMIEVKGPGDRLQDNQLRWLDFCQEHRMPVAVCYVQWQ,not soluble
4,LGKQIMFDAFRFKCPPQELNAAIIKQLRGLLDLGIGEIKARAEKQEALLEYPIFFNDWQDNKKIIRNLLDRISADQLPLEIYRYTTFEDGSVLEEQLTLKEANEALTALQRIELEQDMLSQLEAGHISSRDEYVPDDEDV,not soluble
5,LKDSYVEYTLLYDTIASRISIDEVEAKDGKLRLMKNVWWEYDKLPHMLIAGGTGGGKTYFILTLIEALLHTDSKLYILDPKNADLADLGSVMANVYYRKEDLLSCIETFYEEMMKRSEEMKQMKNYKTGKNYAYLGLPAHFLIFDEYVAFMEMLGTKENTAVMNKLKQIVMLGRQAGFFLILACQRPDA,not soluble
6,LKQRRKIANEVKIKNTLLEYAQQITQMGTFEYNVFTNTLFWSNEMYNIFELDRSVIPEINFIDSLIKEESEITHNRRKKNFQPGASYSDELKIRTVNGNEKVLISNGYVVNEENGLVVHGAIIDIT,not soluble
7,LLEIDFAELTLEEIIGIGGFGKVYRAFWIGDEVAVKAARHDPDEDISQTIENVRQEAKLFAMLKHPNIIALRGVCLKEPNLCLVMEFARGGPLNRVLSGKRIPPDILVNWAVQIARGMNYLHDEAIVPIIHRDLKSSNILILQKVENGDLSNKILKITDFGLAREWHRTTKMSAAGAYAWMAPEVIRASMFSKGSDVWSYGVLLWELLTGEVPFRGIDGLAVAYGVAMNKLALPIPSTCPEPFAKLMEDCWNPDPHSRPSFTNILDQLTTI,soluble
8,LLPLRGLLVFPTMVLHLDVGRKKSVEALEHAMIDDHYILLAAQKEISIDEPIETDIYQIGTYAKVKQMLKLPNGTIRVLVEGLQRAKIEKYVANDAFIEVEMCTLPEDDEDNATENKALMRNVLQLFEQYIKLSKKVSAETLASVSDIAEPGRLADVIASHLPLKIVEKQQLLETTSVKERLLQV,soluble
9,LLQHAHNPVNWYSWSPEAFSKAKSEDKPIFLSIGYSTCHWCHVMERESFEDDDVAEVLNRSFVSIKVDREERPDIDEIYMNVCTAITGSGGWPLTIVMTPEQKPFFAGTYIPKNNRMGMQGLISLLENIEYQWKENQNELVEIGDKIVSSLNKDRKT,not soluble
10,LNDAWFNSSVVRAMLTHTRVFGRYEGPEEKLFRTANYTEINCIDNYAPTEMIEVKVTDRSGAVVEGADIRFCIYNYSEFYPVVTKQSDAQGLASLRVGKGDMLIWAAKDGLFGYALSKADDRKPLAIALDNFEAQPEWADFKIVPPAGDPIPTTCSPQQISTNDARLLREDSIRAAYEATFATAEQSAALAAELGVDAPALTGILQTSRGNHADIEGFLRSVEAGKARQRAMDLLQTVSPKDLTDTPESLLKVIFRDMAEPAPEAASGEAYRHHLRYVASPRIYTEMLSSFVPTLRSILTAKEQEAMRQDPAELVRWVSSNIRLDTLYNTQYTTITPVGVWRAKRADLRSMGIFFVAMARTLGIPARYDEVTGKIQYSKELMPLRWSDVNLRESKTALKEQGSLALDYSPTALAPNPNYYSRFTVAELQPSGIIRTLYYDENEPTDLKTLFDRPKEMNAGHYFLVTGTRMASGSVLCRMRKFTVEAGKTARQPLELLHDSTDIQVIGSINAEQLYHDLSHAEDRSLLSTTGRGYFAMAILGAGQEPTNHALKDLEKVKADFEQWGRKLILLFPDADGHKRYKPADFPSLPETAVFGLDIQGRNAAMIREAANLPDATNLPIVIIADSFGRVVFVRQGYTIGLGEQMMQVIHRL,not soluble
11,LPAYEKQVEVVEKDLEQVHICLGTKAFPQNHPRRFEVYLVNTLLGGSMSSRLFQEIRERLGLAYSVYSYVVSHTDAGSLVVYVGTSPEKLDDVLDITVAELKRLKTELVPLPELESAKEQIKGSIYLSLESSDNRMTKLAKNEIYFGRYIPIHELADGFDSVTSRGILELAGEIFDERYLTLALMGKIDSAAFDVSRLAL,not soluble
12,LPHLMKYMGSKRELLDFIISSINDLDIESNWFCDLFSGTSVVGCSLKDEYNVQINDIQIYTSIFANTYLPNINKLINSTELEKIKDRVLFYVDEFYRKYPDLIFDYNSIDNYEKLTKLEIQQQNLIYSNFEIGFHLFVKYYSGTYWSYTQCVWIDSIRAVAEEYKGKSDYYIILSSLIYAMSYTSQSTGHFAQFRDVTESNMHDIMLYRIRDIWTYFEKKFLEILNMVDVEATNRYTITTLDYLDCLRLIERNTIVYADPPYSSVHYSRFYHAIETLIRYDYPNVKYKGRYREDRHQSPFGKKTEVKNAFGKLFKGVKNKNSHLILSYSDNGMITQDEIMEIGNSIMGNQYKGDIQVKEYIHSKMGRSDIHSMGVNELIISYKRQ,not soluble
13,LPLRESHTAHQATDFGVKVFQQVVQASKDRNVVFSPYGVSSVLAMLQMTTAGKTRRQIQDAMGFKVNEKGTAHALRQLSKELMGPWNKNEISTADAIFVQRDLELVQGFMPHFFKLFQTMVKQVDFSEVERARFIINDWVERHTKGMINDLLAKGAVDELTRLVLVNALYFSGQWKTPFLEASTHQRLFHKSDGSTVSVPMMAQSNKFNYTEFTTPDGLEYDVVELPYQGDTLSMFIAAPFEKDVHLSALTNILDAELIRQWKGNMTRLPRLLILPKFSLETEVDLRGPLEKLGMPDMFSATLADFTSLSDQEQLSVAQALQKVRIEVNESGTVASSSTAFVISARMAPTEMVIDRSFLFVVRHNPTETILFMGQVMEP,soluble
14,LPPGWQSYLSPQGRRYYVNTTTNETTWERPSSS,soluble
15,LRNATQRMFEIDYSRDSFLKDGQPFRYISGSIHYSRVPRFYWKDRLLKMKMAGLNAIQTYVPWNFHEPWPGQYQFSEDHDVEYFLRLAHELGLLVILRPGPYICAEWEMGGLPAWLLEKESILLRSSDPDYLAAVDKWLGVLLPKMKPLLYQNGGPVITVQVENEYGSYFACDFDYLRFLQKRFRHHLGDDVVLFTTDGAHKTFLKCGALQGLYTTVDFGTGSNITDAFLSQRKCEPKGPLINSEFYTGWLDHWGQPHSTIKTEAVASSLYDILARGASVNLYMFIGGTNFAYWNGANSPYAAQPTSYDYDAPLSEAGDLTEKYFALRNIIQKFEKVPEGPIPPSTPKFAYGKVTLEKLKTVGAALDILCPSGPIKSLYPLTFIQVKQHYGFVLYRTTLPQDCSNPAPLSSPLNGVHDRAYVAVDGIPQGVLERNNVITLNITGKAGATLDLLVENMGRVNYGAYINDFKGLVSNLTLSSNILTDWTIFPLDTEDAVRSHLGGWGHRDSGHHDEAWAHNSSNYTLPAFYMGNFSIPSGIPDLPQDTFIQFPGWTKGQVWINGFNLGRYWPARGPQLTLFVPQHILMTSAPNTITVLELEWAPCSSDDPELCAVTFVDRPVIGSSVTYDHPSKPVEKRLMPPPPQKNKDSWLDHV,soluble
16,LRSRRKPSSRIGRRPSTTQDRISTVGIELFTEQGFDATSVDEVAEASGIARRTLFRYFPSKNAIPWGDFDAHLAEMRAQLAAQPDDIPIVDGLTAALLQFNAFPASEEINHRKRMGLILRVPALQAYSVVMYEGWRNVIAEYVASRLGTSPTDHVPRTVGYLLLGVAMSAYEQWLDDDSLELNELLASGMQSLYDGLSSLGEPDTRT,soluble
17,LSAPDSITVTVADHNGVAVLSIGGEIDLITAAALEEAIGEVVADNPTALVIDLSAVEFLGSVGLKILAATSEKIGQSVKFGVVARGSVTRRPIHLMGLDKTFRLFSTLHDALTGVRGGRIDR,soluble
18,LSPPRGLVAVRTPRGVLLHWDPPELVPKRLDGYVLEGRQGSQGWEVLDPAVAGTETELLVPGLIKDVLYEFRLVAFAGSFVSDPSNTANVSTSGL,soluble
19,LSSKYSRNTELRRVEDNDIYRLAKILDENSCWRKLMSIIPKGMDVQACSGAGCLNFPAEIKKGFKYTAQDVFQIDEAANRLPPDQSKSQMMIDEWKTSGKLNERPTVGVLLQLLVQAELFSAADFVALDFLNESTPARPVDGPGALISLELLE,soluble
20,LTSGNINIGNLKVGNDYPMRVLGEIVHVPWLSKEELEEKVNYYVESGADMIDLGMVSNEDYSKDLKQIIKTVRDITDKPVSVDTLNTKELIEAVNLDVDMILSVDSGNFDELLPYLKEKNTVSVVLPTNYKTNEVPKKISEKIQNMEKILEKFKENDLLAVADPILEPINNSGCNFTESVIACYEFKKRNNIPMFFGIGNVTELFDVDSNGVNASIAAIGQEIGGNILFTPEASKKCKFSIKELKTASKMLFLAKKRNSLP,not soluble
21,LYLEQSDIEGHIGVFGSTGSGKTTTLATIACGAAEAGLPVVVADWHGEYQRLVGGGGCRPRVIDPGREGGVNPLSLGWDYSVKTALLASALGLTEPQHYMLLKLLEEHEPRSLIELHSMVEDVEENSRWDREVKRGLMRRLGPLASRAGRSLVEGEGPPIGGRGLYIVDTGSIGNVQLRKTYSILLAAYLQYKAYSRELGPLLLVVDEAHNMFDGEESFPSIMMAESRKFGLYIALATQNPHLLPLRAVSNTNTKIVHSLRWWRDLESIASALSLPRETASKLPHLGRGEAVVYAPSLGYPVLAKIVPPE,not soluble
22,MAAAAVSSAKRSLRGELKQRLRAMSAEERLRQSRVLSQKVIAHSEYQKSKRISIFLSMQDEIETEEIIKDIFQRGKICFIPRYRFQSNHMDMVRIESPEEISLLPKTSWNIPQPGEGDVREEALSTGGLDLIFMPGLGFDKHGNRLGRGKGYYDAYLKRCLQHQEVKPYTLALAFKEQICLQVPVNENDMKVDEVLYEDSSTA,soluble
23,MAAASISAIGCNQTLIGTSFYGGWGSSISGEDYQTMLSKTVAPPQQARVSRKAIRAVPMMKNVNEGKGLFAPLVVVTRNLVGKKRFNQLRGKAIALHSQVITEFCKSIGADAKQRQGLIRLAKKNGERLGFLA,not soluble
